Assay results: US20250276076A1, “ANTI-ALPP/ALPPL2 ANTIBODIES AND ANTIBODY-DRUG CONJUGATES” (SEAGEN INC., priority 2021, published 2025)

System: ALPP/ALPPL2-expressing HEK293 cells
Experiment: Flow cytometry and saturation binding of mouse antibodies
Design: species or system human
Details: flow cytometry
Description: Cynomolgus ALPP, human ALPP, ALPPL2, ALPI and ALPL-expressing HEK293 cells were used to evaluate specificity and binding affinity. Briefly, one hundred thousand target-expressing HEK293 cells were transferred to 96-well plates. Cells were pelleted by centrifugation and resuspended in 100 μL of PBS+2% w/v BSA. After blocking, cells were resuspended in PBS+2% w/v BSA with unlabeled monoclonal anti-ALPP/ALPPL2 antibodies ranging in concentration from 8 pM to 666 nM and incubated on ice for 30 minutes. Cells were washed twice in PBS and resuspended in R-PE labeled secondary goat anti-human or anti-mouse antibodies (Jackson Immunoresearch, West Grove, PA) for 30 minutes on ice. Specificity of monoclonal antibodies for human and cynomolgus ALPP and ALPPL2, but not other members of this alkaline phosphatase family was confirmed by flow cytometry. Fluorescence was analyzed using an Attune NxT flow cytometer, and the percent of saturated fluorescent signal was used to determine percent bound and to subsequently calculate apparent KD.

B1: 12F3: murine anti-ALPP/ALPPL2 monoclonal antibody selected for humanization (antibody, V domains shown)
VH: EVKLVESGGGLVQPGGSLSLSCAASGFTFTDYYMSWVRQPPGKALEWLALIRNKATGYTTEYSASVKGRFTISRDNSQSILYLQMNALRAEDSATYYCARASFYYDGKVLAYWGQGTLVTVSA
VL: DTQMTQSPSSLSASLGGKVTITCKASQDINKYIAWYQYKTGKGPRLLIHYTSTLQPGIPSRFSGSGSGRDYSFSISNLEPEDIATYYCLQYDNLYTFGGGTKLEIK
Question: How did the “saturation levels for ALPP” value turn out when B1 was run?
Answer: higher saturation levels for ALPP than SG84-1F7
